Residue numbers refer to the chain shown, from its start.
Key:
[1] = biological target: T1, cynomolgus monkey CD38 extracellular domain (ECD), tagged (cynomolgus monkey, Avitag biotinylated (in the ELISAs)); assay: SPR (Biacore T200), antibody captured on Protein A, CD38 ED as analyte, 1:1 Langmuir fit;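 also: CM5 sensor chip in HBS-P buffer at pH 7.4, antibody loaded at 5 µg/mL, responses corrected against a blank reference flow cell before fitting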
T1 construct: also called cynomolgus monkey CD38 ED
T1 chain: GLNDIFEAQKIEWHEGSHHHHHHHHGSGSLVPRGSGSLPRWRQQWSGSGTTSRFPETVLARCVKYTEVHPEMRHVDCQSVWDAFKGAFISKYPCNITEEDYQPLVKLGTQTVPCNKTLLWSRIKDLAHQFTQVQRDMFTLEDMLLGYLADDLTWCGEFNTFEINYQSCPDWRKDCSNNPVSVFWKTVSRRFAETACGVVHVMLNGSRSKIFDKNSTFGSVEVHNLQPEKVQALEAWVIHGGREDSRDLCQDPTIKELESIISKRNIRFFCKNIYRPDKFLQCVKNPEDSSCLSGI
Experimental: (§1) Briefly, using a Biacore T200, Protein A was immobilized onto Flow Cell (FC) 1 (FC1) and FC2 (or alternatively FC3 and FC4) of a CM5 research grade sensor chip using amine coupling, giving approximately 2000 RU. FC1 was used as a blank throughout the experiments. The experiments were run in HBS-P buffer (0.01 M HEPES pH 7.4, 0.15 M NaCl, 0.005% v/v Surfactant P20). At a flow rate of 20 μl/min, 20 μl of 5 μg/mL of antibody was passed over FC2. […] Regeneration of the surface was performed using 10mM Glycine, pH 1.0. The FC1 sensorgram data was subtracted from FCS and the curves were fitted using a 1:1 Langmuir equation to generate the kd, kₐ and KD values.

[2] = biological target: T2, human CD38 extracellular domain (ECD), tagged (human, Avitag biotinylated (in the ELISAs)); assay: as above
T2 construct: also called human CD38 ED; biotinylated human CD38
Experimental: as §1

[3] = biological target: T1, cynomolgus monkey CD38 extracellular …; assay: ELISA, biotinylated CD38 ED on streptavidin plates, FAb lysate, anti-V5-HRP
Experimental: (§2) Plates were then washed and individual FAb samples (prepared as described above) were added to individual wells on the ELISA plates. FAbs were allowed to bind the captured CD38 ED for an hour at room temperature and then washed three times with PBS-T (1× PBS supplemented with 0.1% Tween®20). FAbs that bound to CD38 ED were detected by incubation for 30 minutes at room temperature with an anti-V5-HRP conjugated antibody (Invitrogen, Carlsbad, Calif.) to detect the V5 tag fused to the C-terminus of the FAb heavy chain. Plates were washed to remove unbound antibody and the assay signal developed by incubation with 50 μL 3,3′,5,5′-Tetramethylbenzidine (Sigma-Adrich, St. Louis, Mo.) and quenching with 50 μL 1 M HCl. Assay signals were read at A450 nm using a microplate reader (BMG Labtech). Results were expressed as the raw A450 nm value, where any signal 2-fold greater than the average assay background was defined as ‘positive’.
(§3) In later assays FAb cross-reactivity with cynomolgus monkey CD38 ED was assessed by coating biotinylated cynomolgus monkey CD38 ED onto streptavidin coated ELISA plates and proceeding as described above.

[4] = biological target: T2, human CD38 extracellular domain (ECD), …; assay: as above
Experimental: as §2, §3

[5] = biological target: human CD38 on cells (human, UniProt P28907 1-300); assay: flow cytometry, hybridoma supernatant on RPMI-8226 cells; background MFI average 153
Experimental: Viable RPMI-8226 cells (2×10⁵, as judged by trypan blue exclusion) were incubated with 100 μL of rat hybridoma supernatant for 20 minutes on ice in the dark. Cells were washed twice with FACS buffer (1× PBS plus 1% FCS) before incubation for 20 minutes in 100 μl of FACS buffer containing anti-rat IgG-FITC conjugate (Sigma-Aldrich). After washing cells in FACS buffer, they were resuspended in FACS buffer and analysed for antibody-binding by flow cytometry on a FACS Canto (BD Biosciences, San Diego, Calif.) using EV, side scatter and FL-1 gating. Results were expressed as mean fluorescent intensity (MFI).

[6] = biological target: T1, cynomolgus monkey CD38 extracellular …; assay: ELISA, hybridoma supernatant coated, biotinylated CD38 ED in solution
Experimental: (§4) Following incubation for 1 hour at room temperature, plates were washed as described previously. To one well of each rat antibody duplicate well was added 0.1 μg of biotinylated human CD38 in a final volume of 100 μL 1× PBS. To the second well of each rat antibody duplicate well was added 0.1 μg of biotinylated cynomolgus monkey CD38 ED in a final volume of 100 μL 1× PBS. Plate wells were washed as described previously prior to detection of bound biotinylated CD38 ED using a Streptavidin-HRP conjugate (BD Biosciences, San Diego, Calif.). Plates were washed as above to remove unbound Streptavidin-HRP conjugate and the assay signal developed by incubation with 50 μL 3,3′,5,5′-Tetramethylbenzidine (Sigma-Aldrich) and quenching with 50 μL 1 M HCl. Assay signals were read at A₄₅₀ nm using a microplate reader (BMG Labtech, Cary, N.C.).

[7] = biological target: T2, human CD38 extracellular domain (ECD), …; assay: as above
Experimental: as §4

B1: X355/02 IgG1 (antibody, V domains shown)
VH: QLQLQESGPGLVKPSETLSLTCTVSGGSISSSSYYWSWIRQHPGKGLEWIGYIYYSGSTNYNPSLKSRVTISVDTLKNQISLRLTSVTAADTAVYYCARVGGAGGWPMDVWGQGTTVTVSS
VL: QAVLTQPASLSASPGESARLTCTLPSDINVRYYNIYWYQQKPGSPPRYLLYYYSDSHKGQGSGVPSRFSGSKDVSTNSGILLISGLQSEDEADYYCMTWSSNGSGVFGGGTQLTVLG
notes: human IgG1 from phage-derived Fab
[1]
  Kd: 27.4 nM
  koff: 0.00228 s⁻¹
  kon: 83400 M⁻¹ s⁻¹
[2]
  Kd: 7.6 nM
  koff: 0.000892 s⁻¹
  kon: 118000 M⁻¹ s⁻¹

B2: X355/04 FAb (Fab, V domains shown)
VH: QVQLVQSGAEVKKPGSSVKVSCKASGGTFSSYAISWVRQAPGQGLEWMGGIIPIFGTANYAQKFQGRVTITADESTSTAYMELSSLRSEDTAVYYCARDSSSWYFTYGYFQHWGQGTLVTVSS
VL: DVVMTQSPLSLPVTPGEPASISCRSSQSLLNSNGYNYLEWYVQKPGQSPQLLIFLGSNRASGVPDRFSGSGSGTDFTLKINRVEAEDVGVYYCMQALQSPLTFGGGTKVEIK
notes: human Fab from E. coli lysate, V5 tag at the C-terminus of the Fab heavy chain
[3]
  binding result: binds
[4]
  binding result: binds

B3: X355/07 IgG1 (antibody, V domains shown)
VH: QVQLQESGPGLVKPSETLSLTCAVYGGSFSGYYWSWIRQPPGKGLEWIGSIYHSGSTYYNPSLKSRVTISVDTSKNQFSLKLSSVTAADTAVYYCARDLYYYYGMDVWGQGTTVTVSS
VL: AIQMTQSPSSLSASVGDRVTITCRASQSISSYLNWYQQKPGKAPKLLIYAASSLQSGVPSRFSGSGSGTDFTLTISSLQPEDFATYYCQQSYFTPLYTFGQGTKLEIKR
notes: as for B1
[1]
  Kd: 12.2 nM
  koff: 0.0138 s⁻¹
  kon: 1.13e+06 M⁻¹ s⁻¹
[2]
  Kd: 11.4 nM
  koff: 0.00132 s⁻¹
  kon: 115000 M⁻¹ s⁻¹

B4: X910/12 FAb (Fab, V domains shown)
VH: EVQLVQSGAEVKKSGASVKVSCKASGYTFTDYYIHWVRQAPGQGLEWMGWINPNNGGVTFAQKFQGRVTMTRDTSISTAYMDLSSLRSDDTAVYFCARDIRMSGWLAPFDYWGQGTLVTVSS
VL: QAVLTQPASLSASPGESARLTCTLPSDINVRYYNIYWYQQKPGSPPRYLLYYYSDSHKDQGSGVPSRFSGSKDTSANTGILLISGLQSEDEADYYCMIWASNGSGVLGGGTQLTVL
notes: as for B2
[3]
  binding result: binds
[4]
  binding result: binds

B5: X355/01 FAb (Fab, V domains shown)
VH: QVQLVQSGAEVKKPGSSVKVSCKASGGNFISYSISWVRQAPGKRLEWMGWIIPIFGTTTYVQKFQGRVTITADESTSTAYMELSSLRSEDTAVYYCARVKYGSGSYYPNNWFDPWGQGTLVTVSS
VL: EIVLTQSPATLSASPGERATLSCRASQSISSNLAWYQQKPGQAPRLLIQDSSTRATGIPARFSGSGSGTEFTLTISSLQSEDFAVYYCQQSDNWPLTFGGGTKVDIK
notes: as for B2
[3]
  binding result: binds
[4]
  binding result: binds

B6: R7F11 (rat hybridoma antibody) (antibody, V domains shown)
VH: QIQLVQSGPGLKKPGESVKISCKASGYTFTDYSMHWVKQAPGKGLQWMGWINTYSGKPTYAADFKGRFVFSLEASASTANLQISNLKNEDTATYFCARCYDGTFYYDPMDAWGQGTSVTVSS
VL: NIVLTQSPATLSVTPGESVSLSCRASQSIGTSIHWYQQKSNESPRLLIRYASQSISGIPSRFSGSGSGTDFTLSINRVESEDFSIYYCQQSYSSLVTFGSGTKLEIK
notes: tested as rat hybridoma supernatant; kappa light chain
[5]
  MFI: 11900 MFI
[6]
  binding result: binds
[7]
  binding result: binds

B7: X913/15 FAb (Fab, V domains shown)
VH: QVQLVESGGGVVQGGGSLRLSCAASGFTVRSNYMSWVRQAPGKGLEWVSAISGSGDSTYYADSVKGRFTISRDNSKNTLYLQMNSLRAEDTAVYYCAKVAVTTGWYFDLWGRGTLVTVSS
VL: QAVLTQPASLSASPGESARLTCTLPSDINVRYHNIYWYQEKPGSPPRYLLYYYSDSSKGQGSGVPSRFSGSKDVSTNTGILVISGLQSEDEAEYYCMTWSSNGSGVFGGGTQLTVL
notes: as for B2
[3]
  binding result: binds
[4]
  binding result: binds

B8: R5D1 IgG1 (antibody, V domains shown)
VH: EVQLQQSGPEVGRPGSSVKISCKASGYTFTDYIMHWVKQSPGQGLEWIGWIDPEYGRTDYAEKFKKKATLTADTSSSTAYIQLSSLASEDTATYFCARSAHTTGFGFAYWGQGTLVTVSS
VL: DIQMTQSPASLSASLGETVTIECRASEDIYSNLAWYQQKPGNSPQLLIYDANSLADGVPSRFSASGSGTQFSLKINSLRSEDVASYFCQQYNNYPYTFGAGTKLELKR
notes: chimeric rat-human IgG1
[1]
  Kd: 1 nM
  koff: 0.0011 s⁻¹
  kon: 1.11e+06 M⁻¹ s⁻¹
[2]
  Kd: 1 nM
  koff: 0.000239 s⁻¹
  kon: 243000 M⁻¹ s⁻¹

B9: R5D1 (rat hybridoma antibody) (antibody, V domains shown)
VH: B8 VH
VL: DIQMTQSPASLSASLGETVTIECRASEDIYSNLAWYQQKPGNSPQLLIYDANSLADGVPSRFSASGSGTQFSLKINSLRSEDVASYFCQQYNNYPYTFGAGTKLELK
notes: as for B6
[5]
  MFI: 12200 MFI

B10: R5E8 IgG1 (antibody, V domains shown)
VH: EVQLQQSGPEVGRPGSSVKISCKASGYIFTDYIMHWVKQSPGQGLEWIGWIDPEYGSTDYAEKFKKKATLTADTSSSTAYIQLSSLTSEDTATYFCARVAIITTVASGGFAYWGQGTLVTVSS
VL: DIVMTQGALPNPVPSGESASITCQSSESLLHSNGKTYLNWYLQRPGQSPQLLIYWMSTRAAGVSDRFSGSGSGTDFTLTISGVEAEDVGVYYCQQFLEYPPTFGSGTKLEIKR
notes: chimeric rat-human IgG1
[1]
  Kd: 4.2 nM
  koff: 0.0019 s⁻¹
  kon: 452000 M⁻¹ s⁻¹
[2]
  Kd: 2.9 nM
  koff: 0.00118 s⁻¹
  kon: 405000 M⁻¹ s⁻¹

B11: R5E8 (rat hybridoma antibody) (antibody, V domains shown)
VH: B10 VH
VL: DIVMTQGALPNPVPSGESASITCQSSESLLHSNGKTYLNWYLQRPGQSPQLLIYWMSTRAAGVSDRFSGSGSGTDFTLTISGVEAEDVGVYYCQQFLEYPPTFGSGTKLEIK
notes: as for B6
[5]
  MFI: 10600 MFI

B12: R7H11 (rat hybridoma antibody) (antibody, V domains shown)
VH: QVQLKESGPGLLLSSETLSLTCTVSGFSLTSYEVSWVRQLPGRGLEWMGRVWIGGDTDYNSDLKSRLSISRDIAKSQVFLKMSNLKTEDTGTYYCARAYGFNYWSFDFWGPGTMVTVSS
VL: GQFTLTQPKSVSGSLRSTITIPCERSSGDIGDNYVTWYQQHLGRPPLNVIYADDQRPSEVSDRFSGSIDSSSNSASLTITNLQMDDEADYFCQSYDSNTDIIFGGGTKVTVL
notes: tested as rat hybridoma supernatant; lambda light chain
[5]
  MFI: 680 MFI

B13: R10B10 (rat hybridoma antibody) (antibody, V domains shown)
VH: QVQLKESGPGLVQPSETLSLTCTVSGFSLTSYGVNWVRQPPGKGLEWMGRIWNDGSIDYNSALKSRLSISRDTSKGQVFLKMNSLQTEDTAIYFCARGPYNNYWYFDFWGPGTMVTVLS
VL: B12 VL with T36S, L47I, T99I, V109L
notes: as for B12
[5]
  MFI: 858 MFI

B14: R10A2 (rat hybridoma antibody) (antibody, V domains shown)
VH: EVQLQQSGPEVGRPGSSVKISCKASGYTFTDSVMNWVKQSPGQGLEWIGWIDPEYGRTDVAEKFKKKATLTADSSSSTAYIYLSGLTSEDTATYFCARTKYNSGYGFPYWGQGSLVTVSS
VL: DIVMTQSPTSISISVGERVTMNCKASQNVDSDVDWYQQKTGQSPKLLIYKASNRYTGVPDRFTGSGSGTDFTFTISNMQAEDLAVYYCMQSNTHPRTFGGGTKLELK
notes: as for B6
[5]
  MFI: 4470 MFI

B15: R10A2 IgG1 (antibody, V domains shown)
VH: B14 VH
VL: DIVMTQSPTSISISVGERVTMNCKASQNVDSDVDWYQQKTGQSPKLLIYKASNRYTGVPDRFTGSGSGTDFTFTISNMQAEDLAVYYCMQSNTHPRTFGGGTKLELKR
notes: chimeric rat-human IgG1
[1]
  Kd: 2.2 nM
  koff: 0.00193 s⁻¹
  kon: 898000 M⁻¹ s⁻¹
[2]
  Kd: 0.7 nM
  koff: 0.000479 s⁻¹
  kon: 660000 M⁻¹ s⁻¹
